Reference: US20040009892A1, “Method for the identification and use of substances that modulate POD function and/or structure” (The Salk Institute for Biological Studies, priority 1997, published 2004)

Test system: Hep-2 cells
Assay: Immunofluorescence localization of PML and DipA in Hep-2 cells
Format: cell-based
Conditions: 5 μg of gamma interferon for 18 hrs before fixation
Method: Hep-2 cells were grown in round coverslips and maintained in DMEM supplemented with 10% fetal calf serum in a humidified atmosphere containing 5% CO2. Cells were treated with 5 μg of gamma interferon (Biosource) or mocked treated for 18 hrs before fixation. Cells were fixed by one of two methods. In a first method, the cells were fixed at room temperature for 5 min with freshly prepared 1% paraformaldehyde in PBS, washed with PBS, and permeabilized for 20 min on ice with 0.2% Triton X-100 in PBS (v/v) (Sigma Chemical Co.). Antigen localization (PML and DipA) was determined after incubation of permeabilized cells with rabbit antiserum (DipA Ab) and a specific PML mab diluted in PBS for 1 hr at RT. Cells were double labeled with the respective second antibodies labeled either with FITC or Texas red, using FITC for the structures with the lowest staining intensity.
Alternatively, cells were fixed at −20° C. for 5 min with fresh and cold acetone followed by fresh and cold absolute methanol.
The cells were incubated with the first Ab diluted in PBS-10% calf serum for two hrs at RT in a humidified chamber. Coverslips were washed for 10 min in PBS 0.05% Tween 20. […]
Fluorescence images were analyzed using either the Leica confocal scanning microscope or a Nikon Microphot-SA immunofluorescence microscope. […]

B1: interferon gamma: gamma interferon (Biosource) used to treat Hep-2 cells (protein, UniProt P01579 24-161, looked up)
Interferon gamma: QDPYVKEAENLKKYFNAGHSDVADNGTLFLGILKNWKEESDRKIMQSQIVSFYFKLFKNFKDDQSIQKSVETIKEDMNVKFFNSNKKKRDDFEKLTNYSVTDLNVQRKAIHELIQVMAELSPAAKTGKRKRSQMLFRG
co-localization of PML and DipA in the POD structures: increased co-localization of PML and DipA in the POD structures
